Laboratory results taken from patent US20190367589A1 (CYTOMX THERAPEUTICS, published 2019).
Where a chain is given by its changes, count along the chain named.

T1: JS5340
T1 construct: also called masking moiety JS5340
T1 peptide displayed on cells: CNLWLHGGDCRGWQG

T2: JS5358
T2 construct: also called masking moiety JS5358
T2 peptide displayed on cells: CNIWVNGGDCRSFEG

T3: JS5347
T3 construct: also called masking moiety JS5347
T3 peptide displayed on cells: CNIWGPSVDCGALLG

B1: masking moiety JS5872 (peptide)
peptide: GCNIWLNGGDCRGWVDPLQG
B2: masking moiety JS4896 (peptide)
peptide: CNLWVSGGDCGGLQG
B3: anti-Jagged 13 IgG (antibody, V domains shown)
VH: EVQLLESGGGLVQPGGSLRLSCAASGFTFSSYAMSWVRQAPGKGLEWVSSIETQGPTTLYADSVKGRFTISRDNSKNTLYLQMNSLRAEDTAVYYCAKTSSAFDYWGQGTLVTVSS
VL: DIQMTQSPSSLSASVGDRVTITCRASQSISSYLNWYQQKPGKAPKLLIYASSLQSGVPSRFSGSGSGTDFTLTIGSLQPEDFATYYCQQNVATPLTFGQGTKVEIKR
notes: Fully human IgG made from the variable domains of ScFv Jagged 13; also called anti-Jag 13
B4: anti-Jagged 13 Fab (Fab, V domains shown)
VH: B3 VH
VL: B3 VL
notes: Fab expressed in E. coli; also called Jag13
B5: anti-Jagged 32 IgG (antibody, V domains shown)
VH: B3 VH with T53Q, Q54M, P56W, T57Q, L59Y, T99S, S100A, S101A
VL: B3 VL with S51A, G75S, N90T, A92V, T93A
notes: Fully human IgG made from the variable domains of ScFv Jagged 32; also called anti-Jag 32; antibody 32/32
B6: anti-Jagged 32 Fab (Fab, V domains shown)
VH: B3 VH with T53Q, Q54M, P56W, T57Q, L59Y, T99S, S100A, S101A
VL: B3 VL with S51A, G75S, N90T, A92V, T93A
notes: Fab expressed in E. coli; also called Jag32
B7: masking moiety JS4899 (peptide)
peptide: YCLQLPHYMQAMCGR
B8: masking moiety JS4897 (peptide)
peptide: SCSLWTSGSCLPHSP
B9: masking moiety JS5342 (peptide)
peptide: CNIWLVGGDCRGWQG
B10: 4D11 Fab (Fab, V domains shown)
VH: EVQLLESGGGLVQPGGSLRLSCAASGFTFSSYAMSWVRQAPGKGLEWVSSIDPEGRQTYYADSVKGRFTISRDNSKNTLYLQMNSLRAEDTAVYYCAKDIGGRSAFDYWGQGTLVTVSS
VL: DIQMTQSPSSLSASVGDRVTITCRASQSISSYLNWYQQKPGKAPKLLIYAASSLQSGVPSRFSGSGSGTDFTLTISSLQPEDFATYYCQQTVVAPPLFGQGTKVEIKR
notes: C-terminally His-tagged Fab from the periplasm of E. coli; also called anti-Jagged Fab 4D11; Fab 4D11
B11: 4B2 Fab (Fab, V domains shown)
VH: B10 VH with D52E, P53Q, E54M, R56W
VL: B10 VL with V92L, V93D, L97Q
notes: C-terminally His-tagged Fab from the periplasm of E. coli
B12: 4E7 Fab (Fab, V domains shown)
VH: B3 VH with T53E, Q54M, P56W, T57Q, L59K, T99S, S100A, S101A
VL: B10 VL with T91S, V92L, P96L, L97T
notes: as for B11
B13: 4E11 Fab (Fab, V domains shown)
VH: B10 VH with D52E, E54M, R56Q, Q57L, Y59E
VL: B10 VL with T91A, V92L, V93D, P96L, L97M
notes: as for B11
B14: 6B7 Fab (Fab, V domains shown)
VH: B3 VH with E52D, T53E, Q54M, P56W, T57Q, L59Y, T99S, S100A, S101A
VL: B10 VL with T91A, V92L, P96L, L97T
notes: as for B11
B15: 6F8 Fab (Fab, V domains shown)
VH: B3 VH with E52D, T53E, Q54M, P56W, T57Q, L59Y, T99S, S100A, S101A
VL: B10 VL with T91A, V92L, P96L, L97T
notes: C-terminally His-tagged Fab from the periplasm of E. coli; As printed its variable domains equal those of 6B7
B16: masking moiety JS4874 (peptide)
peptide: PWCMQRQDFLRCPQP
B17: masking moiety JS4879 (peptide)
peptide: QLGLPAYMCTFECLR
B18: masking moiety JS5887 (peptide)
peptide: GCNIWANGGDCRGWIDNIDG
B19: masking moiety JS5877 (peptide)
peptide: GCNIWLVGGDCRGWIGDTNG
B20: masking moiety JS5885 (peptide)
peptide: GCNIWLVGGDCRGWIEDSNG
B21: masking moiety JS4906 (peptide)
peptide: CFLYSCTDVSYWNNT

Tests used:
4D11 Fab [1] = biological target: B10; test: FACS of bacteria displaying the peptide, labeled Fab 4D11, normalized to expression
[2] = biological target: T4, anti-Jagged antibody 4D11 (fully human IgG); test: FACS of bacteria displaying the peptide
T4 construct: Human IgG1 kappa from HEK-293 cells; Labeled with Alexa Fluor 680 in the tissue stainings, biotinylated in the peptide screens; also called anti-Jagged 4D11; 4D11 antibody

4D11 Fab [3] = biological target: B10; test: FACS of bacteria displaying the peptide
[4] = biological target: T5, human Jagged 1-Fc (extracellular domain of human Jagged 1 fused to the Fc portion of human IgG1); R&D Systems … (human, UniProt P78504 34-1067); test: ELISA, ligand-Fc coated, anti-human IgG Fab-specific HRP
T5 construct: extracellular domain; Bought reagent; also called hJag1; h Jagged 1; not shown: Fc portion of human IgG1
Experimental: (§1) Bound antibody was visualized with an anti-human IgG-HRP conjugate, Fab specific, (Sigma, St Louis, Mo.; Cat # A0293-1ML) and developed with the chromogenic substrate TMB.

[5] = biological target: T6, human Jagged 2-Fc (R&D Systems Cat #1726-JG-050) (human, UniProt Q9Y219 27-1080, limits assumed); test: as above
T6 construct: Bought reagent; also called hJag2; h Jagged 2; not shown: Fc part
T6 sequence (Q9Y219 27-1080 limits assumed): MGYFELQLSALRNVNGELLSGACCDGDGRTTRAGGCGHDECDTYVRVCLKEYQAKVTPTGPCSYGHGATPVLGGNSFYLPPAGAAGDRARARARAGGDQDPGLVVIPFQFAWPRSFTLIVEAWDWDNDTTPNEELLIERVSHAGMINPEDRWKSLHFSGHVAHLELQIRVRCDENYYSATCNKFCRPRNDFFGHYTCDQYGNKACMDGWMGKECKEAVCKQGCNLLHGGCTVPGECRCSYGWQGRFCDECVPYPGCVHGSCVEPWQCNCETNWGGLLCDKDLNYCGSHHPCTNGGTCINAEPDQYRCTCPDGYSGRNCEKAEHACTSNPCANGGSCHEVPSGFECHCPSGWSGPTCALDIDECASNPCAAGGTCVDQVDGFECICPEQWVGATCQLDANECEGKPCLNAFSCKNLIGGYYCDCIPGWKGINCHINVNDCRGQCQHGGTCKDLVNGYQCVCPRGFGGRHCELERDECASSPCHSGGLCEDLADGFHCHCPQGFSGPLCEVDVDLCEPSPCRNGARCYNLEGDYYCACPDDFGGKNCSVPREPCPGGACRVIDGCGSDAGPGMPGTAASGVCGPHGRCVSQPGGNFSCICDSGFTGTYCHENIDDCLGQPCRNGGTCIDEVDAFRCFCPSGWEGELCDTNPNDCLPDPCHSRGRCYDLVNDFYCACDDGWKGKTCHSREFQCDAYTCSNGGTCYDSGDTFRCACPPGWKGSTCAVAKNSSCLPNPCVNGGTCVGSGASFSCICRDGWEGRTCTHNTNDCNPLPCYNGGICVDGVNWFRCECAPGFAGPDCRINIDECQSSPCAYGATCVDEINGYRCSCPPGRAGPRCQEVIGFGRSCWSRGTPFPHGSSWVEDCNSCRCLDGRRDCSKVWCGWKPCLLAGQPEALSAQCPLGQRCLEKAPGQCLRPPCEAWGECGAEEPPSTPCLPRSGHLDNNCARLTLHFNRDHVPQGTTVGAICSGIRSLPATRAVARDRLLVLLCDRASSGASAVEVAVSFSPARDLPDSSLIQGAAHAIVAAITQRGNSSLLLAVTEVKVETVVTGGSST
Experimental: as §1

[6] = biological target: T5, human Jagged 1-Fc (extracellular domain …); test: BLI (Octet), Jagged-Fc on anti-human Fc tips, Fab in solution
Experimental: (§2) Off rates for individual Fabs were measured using an Octet (ForteBio, Menlo Park, Calif.). […] Following a wash, the loaded tips were exposed to 25 μM Fab until binding had reached equilibrium. The tips were then removed to a fresh solution with no Fab, and the rate of Fab dissociation was measured.

[7] = biological target: T7, murine Jagged 2-Fc (R&D Systems) (murine, UniProt Q9QYE5 24-1082, limits assumed); test: as above
T7 construct: Bought reagent, cited as ibid. although no catalogue number is printed anywhere; also called m Jagged 2; not shown: Fc part
T7 sequence (Q9QYE5 24-1082 limits assumed): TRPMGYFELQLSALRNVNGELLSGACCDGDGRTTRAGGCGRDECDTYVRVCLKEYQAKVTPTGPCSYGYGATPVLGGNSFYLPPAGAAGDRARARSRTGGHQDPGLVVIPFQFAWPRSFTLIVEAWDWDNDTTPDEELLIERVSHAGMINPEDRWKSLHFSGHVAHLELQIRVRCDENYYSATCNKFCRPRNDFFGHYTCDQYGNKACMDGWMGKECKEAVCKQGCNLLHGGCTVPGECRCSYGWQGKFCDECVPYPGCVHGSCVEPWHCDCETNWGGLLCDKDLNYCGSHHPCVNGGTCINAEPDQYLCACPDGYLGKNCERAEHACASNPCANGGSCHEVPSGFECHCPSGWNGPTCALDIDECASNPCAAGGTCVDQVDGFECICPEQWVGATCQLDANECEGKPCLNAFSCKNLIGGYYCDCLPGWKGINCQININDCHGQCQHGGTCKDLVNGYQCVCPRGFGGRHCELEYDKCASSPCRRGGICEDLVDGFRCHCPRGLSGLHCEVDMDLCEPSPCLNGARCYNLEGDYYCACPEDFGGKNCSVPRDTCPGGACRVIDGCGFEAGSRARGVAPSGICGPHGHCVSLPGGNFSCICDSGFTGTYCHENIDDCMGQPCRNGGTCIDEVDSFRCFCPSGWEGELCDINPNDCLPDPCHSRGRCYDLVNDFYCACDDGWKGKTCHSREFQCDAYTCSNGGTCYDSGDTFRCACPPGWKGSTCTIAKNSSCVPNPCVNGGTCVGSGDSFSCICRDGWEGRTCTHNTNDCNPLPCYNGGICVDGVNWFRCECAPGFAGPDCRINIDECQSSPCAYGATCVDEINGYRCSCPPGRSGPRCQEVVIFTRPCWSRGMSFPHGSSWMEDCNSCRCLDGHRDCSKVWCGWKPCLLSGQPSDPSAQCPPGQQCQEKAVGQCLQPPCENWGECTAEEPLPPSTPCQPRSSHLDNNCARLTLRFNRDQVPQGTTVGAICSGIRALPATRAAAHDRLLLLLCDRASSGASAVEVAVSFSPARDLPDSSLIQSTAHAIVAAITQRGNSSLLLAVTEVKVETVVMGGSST
Experimental: as §2

[8] = biological target: T6, human Jagged 2-Fc (R&D Systems Cat …); test: as above
Experimental: as §2

[9] = biological target: T6, human Jagged 2-Fc (R&D Systems Cat …); test: drawn table 'Kd (nM)' of Fab; method not stated; the legend names the matured antibody as 4D11
masking moiety JS5342 = biological target: B9; test: FACS of cells displaying the peptide, biotinylated anti-Jagged Fab at 1, 10 and 100 nM, streptavidin-PE, normalised to expression with yPet-MONA
JS5340 = biological target: T1, JS5340; test: as above
JS5358 = biological target: T2, JS5358; test: as above
JS5347 = biological target: T3, JS5347; test: as above
masking moiety JS5885 = biological target: B20; test: FACS of cells displaying the masking peptide, labelled Fab 4D11, signal normalised to expression; Fab concentration not given
masking moiety JS5877 = biological target: B19; test: as above
masking moiety JS5872 = biological target: B1; test: as above
masking moiety JS5887 = biological target: B18; test: as above

Q: Does B1 bind (4D11 Fab [1])?
A: binds

Q: Does B2 bind [2]?
A: binds

Q: Does B2 bind (4D11 Fab [3])?
A: binds

Q: For B3, which “affinity (ELISA)” value [4] is on record?
A: > 30 nM

Q: What about the “affinity (ELISA)” value [5] of the same binder?
A: > 30 nM

Q: For B4, which koff [6] is on record?
A: 0.022 s⁻¹

Q: And the koff [7]?
A: 0.0028 s⁻¹

Q: And the koff [8]?
A: 0.001 s⁻¹

Q: With B5 as the binder, how does the “affinity (ELISA)” value [4] read?
A: > 30 nM

Q: For B6, which koff [6] is on record?
A: 0.027 s⁻¹

Q: Which results are given for B7?
A: binding result [2]: binds; binding result (4D11 Fab [3]): binds

Q: Does B8 bind [2]?
A: binds

Q: Does B8 bind (4D11 Fab [3])?
A: binds

Q: Does B9 bind (4D11 Fab [1])?
A: binds

Q: Which Kd [9] does the source give for B10 here?
A: < 1 nM

Q: Does B10 bind (masking moiety JS5342)?
A: binds

Q: Does B10 bind (JS5340)?
A: binds

Q: Does B10 bind (JS5358)?
A: binds

Q: Does B10 bind (JS5347)?
A: binds

Q: Does B10 bind (masking moiety JS5885)?
A: binds

Q: Does B10 bind (masking moiety JS5877)?
A: binds

Q: Does B10 bind (masking moiety JS5872)?
A: binds

Q: Does B10 bind (masking moiety JS5887)?
A: binds

Q: And the koff [7]?
A: 0.00042 s⁻¹

Q: And the koff [8]?
A: 0.00045 s⁻¹

Q: What does the source list for B11?
A: koff [6]: 0.0005 s⁻¹; koff [7]: 0.0011 s⁻¹; koff [8]: 0.0065 s⁻¹

Q: Which koff [6] does the source give for B12 here?
A: 0.00069 s⁻¹

Q: Which results are given for B13?
A: koff [6]: 0.0014 s⁻¹; koff [7]: 2.5e-05 s⁻¹; koff [8]: 0.00057 s⁻¹

Q: Which koff [6] does the source give for B14 here?
A: 0.00035 s⁻¹

Q: B15 was tested. Which koff [6] did it give?
A: 0.0012 s⁻¹

Q: Does B16 bind [2]?
A: binds

Q: Does B16 bind (4D11 Fab [3])?
A: binds

Q: Does B17 bind [2]?
A: binds

Q: Does B17 bind (4D11 Fab [3])?
A: binds

Q: Does B18 bind (4D11 Fab [1])?
A: binds

Q: Does B19 bind (4D11 Fab [1])?
A: binds

Q: Does B20 bind (4D11 Fab [1])?
A: binds

Q: Which results are given for B21?
A: binding result [2]: binds; binding result (4D11 Fab [3]): binds
